Test results taken from PMC5137425.

Assays:
[1] = target: C. elegans TDP2 UBA domain, CeTDP2 (41-100) (C. elegans) (UniProt Q9XWG3); experiment: NMR titration
[2] = target: C. elegans TDP2 UBA domain, CeTDP2 (41-100) (C. elegans) (UniProt Q9XWG3); experiment: fluorescence polarisation
[3] = target: Human ubiquitin (monoUb) (human) (UniProt P0CG48); experiment: NMR titration

Kd [1] [µM] | Kd [2] [µM] | Kd [3] [µM] | Substance
120 | 40 |  | Human ubiquitin (monoUb) (from UniProt P0CG48 1-76) (natural protein)
 |  | 100 | C. elegans TDP2 UBA domain, CeTDP2 (41-100) (from UniProt Q9XWG3 41-100) (domain or fragment)
10.2 |  |  | K63-linked diubiquitin (from UniProt P0CG48 1-76) (complex)
 | 8.4 |  | K48-linked diubiquitin (from UniProt P0CG48 1-76) (complex)
